Measured values from the supplement of paper PMC9170038.

System: MS2 coat protein
Assay: apparent KD of MS2 coat protein; designed switch direction (-1 OFF switch, 1 ON switch): -1; higher = weaker reporter binding
Method in brief: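 Each step of the titration lasted 0.8–1.5 h at the lowest concentration and 10–20 min at the highest. The protein, SNAP-549-labelled MS2 coat protein, went from 0.7 or 1.5 nM doubling to 3 µM over RNA switches transcribed on Illumina chips by stalled E. coli RNA polymerase. Normalised cluster fluorescence was curve-fitted, and the per-design median over clusters is given as apparent KD.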

[1] = input ligand: microRNA oligo, concentration not stated
[2] = Eterna round: R95, input ligand: microRNA oligo, concentration not stated
[3] = Eterna round: R95, input ligand: FMN 200 uM
[4] = Eterna round: R95, input ligand: none

| Sequence | apparent KD of MS2 coat protein (input ligand: FMN 200 uM) [nM] | apparent KD of MS2 coat protein [1] [nM] | apparent KD of MS2 coat protein (input ligand: none) [nM] | apparent KD of MS2 coat protein [2] [nM] | apparent KD of MS2 coat protein [3] [nM] | apparent KD of MS2 coat protein [4] [nM] |
| --- | --- | --- | --- | --- | --- | --- |
| AGUUGUUGUUUCCGUUCUUACAUGAGGAUCACCCAUGUUUCUUGUCGUGCUCGCGUUGCUCGUCUGGCUGCCUGUUG [salish99_TOv1_r3_069] (Eterna round: R96, puzzle: Sensor v3, turn-off variant 1) | 47 | 28 | 46.4 |  |  |  |
| GAUCGACAUGAGGAUCACCCAUGUCAGGAUAUCGUCACUGGAGCUUCGGCUCCAGUGACGAGAAGGGAUAUAAU [E1/16-A1] (Eterna round: R97, puzzle: Exclusion 1) | 26.3 |  | 36.1 |  |  |  |
| CUCUUGUGAGGAUAUCAGGUGUGCUAGCGUACUGGUACAUCUGAGAAGGCACAUGAGGAUCACCCAUGUUUCUA [Mat - Exclusion 4 - Mod of JL - D40] (puzzle: Exclusion 4) |  |  |  | 93.8 |  |  |
| GCCUUAGGAGUCAGGAUAUACAAUAAAAUAAUUAAGUAGAAGGGACAUGAGGAUCACCCAUGUACAUUACAUUG [alecazam29] (Eterna round: R97, puzzle: Brourd's mod of Exclusion 4) | 31 |  | 13.6 |  |  |  |
| UAAAUUGCAAGCAGAUCCUACAUGAGGAUCACCCAUGUGCUCUGAAAUAACGCAGAAUUACUGCGAGCUCGUCUUAU [Winner reversed engineered 26] (Eterna round: R97, puzzle: Sensor, turn-off variant 1) | 80.9 |  | 94.3 |  |  |  |
| CUUCGUAUAGAGGAUAUAGGUUACUUCGGUAUCCUAGAAGGCUGUACAUGAGGAUCACCCAUGUACUUCAGAUC [Exclusion 6 - B - 13:a] (puzzle: Exclusion 6) |  |  |  | 12.2 |  |  |
| UUAUAGUGAGGAUAUAUAUGCAGUAAACCUUUAAAUUUAUAACUUGAGGAUCACCCAAGUAGAAGGCGCGUUAU [JR_Ex2_Sub054] (Eterna round: R97, puzzle: Exclusion 2) | 15.3 |  | 16.9 |  |  |  |
| UUGUUCCGUGUAGGAUAUUGGUCUCCCUCGGGCCGAGAAGGACAUGAGGAUCACCCAUGUAUGCUAUUAUCGCGCGUGGCGCAC [Design 93] (Eterna round: R96, puzzle: Exclusion NG 1) | 138 | 34.1 | 47.3 |  |  |  |
| AGACUCAUUGUGAGGAUAUCGGGUCAACGAGACUACGAGAAGGCACAUGAGGAUCACCCAUGUAGCCACGGCUA [Eternabot (L2) Solution 95] (Eterna round: R97, puzzle: Brourd's mod of Exclusion 4) | 94.8 |  | 240 |  |  |  |
| UUUAGUUCAGGAUAUGUAGAUUUUAACAUGAGGAUCACCCAUGUGGAUCCUGAAUUAACUACAGAAGGGAACAUUU [Mod of Brourd 3 - Jieux - Exclusion 5] (Eterna round: R97, puzzle: Exclusion 5) | 294 |  | 43 |  |  |  |
| UAUAAGAUAGGAUAUACAGGCCCGUCUUCAUAUCGAUCCCGACAUGAGGAUCACCCAUGUAGAAGGAUCGUAUA [Mod 22 - Jieux - Exclusion 2] (Eterna round: R97, puzzle: Exclusion 2) | 15 |  | 8.25 |  |  |  |
| UCAAGUUUAGAGGAUAUAUAAUAUUUAUUAACUAUAGAAGGCUAUACAUGAGGAUCACCCAUGUAUAUUGGGAU [JR_Ex6_Sub066] (Eterna round: R97, puzzle: Exclusion 6) | 40.6 |  | 26.1 |  |  |  |
| AAUUAGUAUGUGAGGAUAUUGAUGUAAUGACGGUUUAAGAAGGCACAUGAGGAUCACCCAUGUAAAUGAUCACG [JR_BMEx4_Sub008] (Eterna round: R97, puzzle: Brourd's mod of Exclusion 4) | 74.4 |  | 37.7 |  |  |  |
| AGUAACUAUCACGAAAGUGAUAGUUACACAAGCAGUGAAACAUGAGGAUCACCCAUGUCCUCAUUUGCUCGUCUUAU [Sensor 3 - 25] (puzzle: Sensor v3, turn-off variant 2) |  |  |  | 390 | 53.1 | 52.2 |
| AGUAACCGUCACGAAAGUGAUGGUUACACAGGCAAAUGUACAUGAGGAUCACCCAUGUCCUCAAUUGCUCGUCUUAU [Sensor 3 - 53] (puzzle: Sensor v3, turn-off variant 2) |  |  |  | 181 | 115 | 120 |
| AAUAAGCUAGGAUAUACAUGAGGAUCACCCAUGUGAGGGCACCGCCGGCGCGGGCCCGGUAGAAGGAGCAAUAA [Exc;s3-IV] (puzzle: Exclusion 3) |  |  |  | 16.1 |  |  |

| Sequence | apparent KD of MS2 coat protein (input ligand: FMN 200 uM) [nM] | apparent KD of MS2 coat protein [1] [nM] | apparent KD of MS2 coat protein (input ligand: none) [nM] | apparent KD of MS2 coat protein [2] [nM] | apparent KD of MS2 coat protein [3] [nM] | apparent KD of MS2 coat protein [4] [nM] |
| --- | --- | --- | --- | --- | --- | --- |
| UCGUUUUUUGAGGAUAUGCGACGUUUUUUCGUCGUAGAAGGCGAUACAUGAGGAUCACCCAUGUUUAUGGGCAU [LRO-Ex6-15] (puzzle: Exclusion 6) |  |  |  | 148 |  |  |
| GCAGAAUGAGUUAGGAUAUGAUGAUUUUUCGGAAAUCAGAAGGAACUUGAGGAUCACCCAAGUUAAGAUAGGGU [JR_BMEx4_Sub065] (Eterna round: R97, puzzle: Brourd's mod of Exclusion 4) | 229 |  | 85 |  |  |  |
| ACAUGUGUUGUAGGAUAUAGGAUACAUGAGGAUCACCCAUGUGGAUUCAUGUCAAAGGAAGCGUCCUAGAAGGACGGCAACAUG [Ex NG2 #24] (Eterna round: R96, puzzle: Exclusion NG 2) | 46.6 | 38.3 | 49.6 |  |  |  |
| CUGUACUGAGGAUAUACAUGAGGAUCACCCAUGUUCCAAGGCUAGGAAACUAGCAAAAGUAGAAGGCAGUACAG [Mat - Exclusion 3 - Eli Mod - D55] (Eterna round: R97, puzzle: Exclusion 3) | 556 |  | 32.7 |  |  |  |
| UACAUGAGGAUCACCCAUGUUUUGUCGUGUUUGGUACCCGUUUAGGAUAUCGUGUUAUUGUAUCGCGAGAAGGAGAGUAUCUUU [Excl-NG3-LRO09] (Eterna round: R96, puzzle: Exclusion NG 3) | 30.9 | 27.1 | 27 |  |  |  |
| GGCAUCGGAGGAUAUACUUAAGGUGAUGUUCGAAGCUUUCUACUUGAGGAUCACCCAAGUAGAAGGCCGAUGCC [jl-ex2.4.77 ViennaUCT mod] (Eterna round: R97, puzzle: Exclusion 2) | 7.63 |  | 19.6 |  |  |  |
| UAUUUAGCAAGCAGAUCCCACAUGAGGAUCACCCAUGUUCUCUGAAAGUACAGAAUUACUGUACUUGCUCGUCUUAU [Winner reversed engineered 34] (Eterna round: R97, puzzle: Sensor, turn-off variant 1) | 210 |  | 237 |  |  |  |
| GGGUAGGGAGGAUAUCCAAUAUAUGACAUGAGGAUCACCCAUGUUUCCACUCGUACCUCCGGAGAAGGCCCAUCCC [Ex5 #14] (Eterna round: R97, puzzle: Exclusion 5) | 25.6 |  | 21.4 |  |  |  |
| GAAAAGGUAGGAUAUACGAAAAAAAAGGGUAAAAAAAAAACACAUGAGGAUCACCCAUGUAGAAGGACCAAAAG [salish99_ex2_r3_062] (puzzle: Exclusion 2) |  |  |  | 32.4 | 44.4 | 34 |
| ACAUGAGGAUCACCCAUGUACAGGGUGUAGUUUCAUUGUUUGAAGGAUAUACUUAGUUAGUUGUUGUAGAAGGUCAUAUUUCAU [JR_ExcNG3_Sub001] (Eterna round: R96, puzzle: Exclusion NG 3) | 126 | 500 | 1040 |  |  |  |
| GGGUGACAGUUAGGAUAUCUUAGCACGCCGUAGAGAGAAGGGACAUGAGGAUCACCCAUGUUGUAGUGCCUCAAACACUGCUAG [Beintitian] (Eterna round: R96, puzzle: Exclusion NG 1) | 45.7 | 31.9 | 48.3 |  |  |  |
| GGUUAAUGCAAGGAUAUGCUAUUAUUUUAUUUUGCAGAAGGUGCAACAUGAGGAUCACCCAUGUUGGAGGGUUU [JR_E6_Sub025] (puzzle: Exclusion 6) |  |  |  | 18.6 |  |  |
| GGGUAGUGAGGAUAUACAUGAGGAUCACCCAUGUUUGCGACACUGGAGGCGUCUCUAUGUAGAAGGCGCGGCCG [EX3 B.16] (Eterna round: R97, puzzle: Exclusion 3) | 30.4 |  | 18.9 |  |  |  |
| GGGUGUGAAGGAUAUACAUGAGGAUCACCCAUGUGAGAGGAGGAGGUUGAGGAGGUUGGUAGAAGGUCAGGAGG [JR_Exclusion3_Sub011] (puzzle: Exclusion 3) |  |  |  | 120 |  |  |
| GCGCACCUACCAAAAGGUAGGCCGACAUGAGGAUCACCCAUGUAGGAUAUCGAUUGCUUUGCAGUCGAGAAGGACGUGAUGCGC [JL ENG3 3.80 Mod 18] (Eterna round: R96, puzzle: Exclusion NG 3) | 20.1 | 14.7 | 19.4 |  |  |  |
